Laboratory results published in article doi:10.1101/2022.08.11.503658.

What was measured:
Experiment in all cases: SDS-PAGE of lysate kept at 25°C versus heated to 95°C, with immunoblot
[1] = target: C-terminally 1xFLAG-tagged NoV GII.4 VP1 capsid protein expressed by rSA11/NSP3-2A-VP1f (human norovirus GII.4 MD145-12)
[2] = target: C-terminally 6xHis-tagged NoV GII.4 VP1 capsid protein expressed by rSA11/NSP3-2A-VP1His (human norovirus GII.4 MD145-12)
[3] = target: N-terminally 3xFLAG-tagged NoV GII.4 VP1 capsid protein expressed by rSA11/NSP3-2A-fVP1 (human norovirus GII.4 MD145-12)
[4] = target: Rotavirus SA11 NSP3 (wild type, from rSA11/wt) (rotavirus SA11)
[5] = target: Rotavirus SA11 NSP3 linked to remnant residues of the 2A peptide (rotavirus SA11 | porcine teschovirus)
[6] = target: Rotavirus SA11 VP6 (rotavirus SA11)

## C-terminally 1xFLAG-tagged NoV GII.4 VP1 capsid protein expressed by rSA11/NSP3-2A-VP1f (natural protein)
[1]
  stoichiometry N: 2

## C-terminally 6xHis-tagged NoV GII.4 VP1 capsid protein expressed by rSA11/NSP3-2A-VP1His (natural protein)
[2]
  stoichiometry N: 2

## N-terminally 3xFLAG-tagged NoV GII.4 VP1 capsid protein expressed by rSA11/NSP3-2A-fVP1 (natural protein)
[3]
  stoichiometry N: 2

## Rotavirus SA11 NSP3 (wild type, from rSA11/wt) (natural protein)
[4]
  stoichiometry N: 2

## Rotavirus SA11 NSP3 linked to remnant residues of the 2A peptide
[5]
  stoichiometry N: 2

## Rotavirus SA11 VP6 (natural protein)
[6]
  stoichiometry N: 3
